Experiments:
HLA-A*02 = HLA-A*02 (Homo sapiens, UniProt P04439, D140Y/D185E/D98H/E176V/E277Q/G131W/G231S/I119V/I121R/I166T/I218V/L300P/N151K/N90K/P208A/P217A/Q86G/Q94H/R138H/R169H); experiment: MHC binding assay by UV-ligand exchange and beta2m ELISA (HLA-A*02); settings: peptide exchange yield, binding to HLA-A*02; UV-ligand exchange, beta2m ELISA
Excerpt: (§1) Candidate peptides for T cell based therapies according to the present invention were further tested for their MHC binding capacity (affinity). The individual peptide-MHC complexes were produced by UV-ligand exchange, where a UV-sensitive peptide is cleaved upon UV-irradiation, and exchanged with the peptide of interest as analyzed. Only peptide candidates that can effectively bind and stabilize the peptide-receptive MHC molecules prevent dissociation of the MHC complexes. To determine the yield of the exchange reaction, an ELISA was performed based on the detection of the light chain (β2m) of stabilized MHC complexes. The assay was performed as generally described in Rodenko et al. (Rodenko et al., 2006).
(§2) 96 well MAXISorp plates (NUNC) were coated over night with 2 ug/ml streptavidin in PBS at room temperature, washed 4× and blocked for 1 h at 37° C. in 2% BSA containing blocking buffer. Refolded HLA-A*02:01/MLA-001 monomers served as standards, covering the range of 15-500 ng/ml. Peptide-MHC monomers of the UV-exchange reaction were diluted 100 fold in blocking buffer. Samples were incubated for 1 h at 37° C., washed four times, incubated with 2 ug/ml HRP conjugated anti-β2m for 1 h at 37° C., washed again and detected with TMB solution that is stopped with […]. Absorption was measured at 450 nm. Candidate peptides that show a high exchange yield (preferably higher than 50%, most preferred higher than 75%) are generally preferred for a generation and production of antibodies or fragments thereof, and/or T cell receptors or fragments thereof, as they show sufficient avidity to the MHC molecules and prevent dissociation of the MHC complexes.

CD8+ T cells = experiment: In vitro T-cell priming assay (aAPCs loaded with peptide/MHC and anti-CD28), pMHC multimer readout; assay type: cell-based, human; settings: for Wells positive [%]: in vitro immunogenicity of HLA class I peptides, peptide specific pMHC multimer staining after three stimulation cycles; for in vitro immunogenicity: Wells: positive wells, HLA-A*02 and HLA-A*24 peptides, healthy donors
Excerpt: In order to obtain information regarding the immunogenicity of the TUMAPs of the present invention, the inventors performed investigations using an in vitro T-cell priming assay based on repeated stimulations of CD8+ T cells with artificial antigen presenting cells (aAPCs) loaded with peptide/MHC complexes and anti-CD28 antibody.
In order to perform in vitro stimulations by artificial antigen presenting cells loaded with peptide-MHC complex (pMHC) and anti-CD28 antibody, the inventors first isolated CD8+ T cells from fresh HLA-A*02 leukapheresis products via positive selection using CD8 microbeads (Miltenyi Biotec, Bergisch-Gladbach, Germany) of healthy donors obtained from the University clinics Mannheim, Germany, after informed consent.
PBMCs and isolated CD8+ lymphocytes were incubated in T-cell medium (TCM) until use consisting of RPMI-Glutamax (Invitrogen, Karlsruhe, Germany) supplemented with 10% heat inactivated human AB serum (PAN-Biotech, Aidenbach, Germany), 100 U/ml Penicillin/100 μg/ml Streptomycin (Cambrex, Cologne, Germany), 1 mM sodium pyruvate (CC Pro, Oberdorla, Germany), 20 μg/ml Gentamycin (Cambrex). 2.5 ng/ml IL7 (PromoCell, Heidelberg, Germany) and 10 U/ml IL-2 (Novartis Pharma, Nurnberg, Germany) were also added to the TCM at this step.
Generation of pMHC/anti-CD28 coated beads, T-cell stimulations and readout was performed in a highly defined in vitro system using four different pMHC molecules per stimulation condition and 8 different pMHC molecules per readout condition.
The purified co-stimulatory mouse IgG2a anti human CD28 Ab 9.3 (Jung et al., 1987) was chemically biotinylated using Sulfo-N-hydroxysuccinimidobiotin as recommended by the manufacturer (Perbio, Bonn, Germany). Beads used were 5.6 μm diameter streptavidin coated polystyrene particles (Bangs Laboratories, Illinois, USA).
pMHC used for positive and negative control stimulations were A*0201/MLA-001 (peptide […] (SEQ ID NO. 303) from modified Melan-A/MART-1) and A*0201/DDX5-001 ([…] from DDX5, SEQ ID NO. 304), respectively.
800.000 beads/200 μl were coated in 96-well plates in the presence of 4×12.5 ng different biotin-pMHC, washed and 600 ng biotin anti-CD28 were added subsequently in a volume of 200 μl. Stimulations were initiated in 96-well plates by co-incubating 1×10^6 CD8+ T cells with 2×10^5 washed coated beads in 200 μl TCM supplemented with 5 ng/ml IL-12 (PromoCell) for 3 days at 37° C. Half of the medium was then exchanged by fresh TCM supplemented with 80 U/ml IL-2 and incubating was continued for 4 days at 37° C. This stimulation cycle was performed for a total of three times. For the pMHC multimer readout using 8 different pMHC molecules per condition, a two-dimensional combinatorial coding approach was used as previously described (Andersen et al., 2012) with minor modifications encompassing coupling to 5 different fluorochromes. Finally, multimeric analyses were performed by staining the cells with Live/dead near IR dye (Invitrogen, Karlsruhe, Germany), CD8-FITC antibody clone SK1 (BD, Heidelberg, Germany) and fluorescent pMHC multimers. For analysis, a BD LSRII SORP cytometer equipped with appropriate lasers and filters was used. Peptide specific cells were calculated as percentage of total CD8+ cells. Evaluation of multimeric analysis was done using the FlowJo software (Tree Star, Oregon, USA). In vitro priming of specific multimer+CD8+ lymphocytes was detected by comparing to negative control stimulations.

HLA-A*24 = experiment: MHC binding assay by UV-ligand exchange and beta2m ELISA (HLA-A*24); design: species or system human; settings: peptide exchange yield, binding to HLA-A*24; UV-ligand exchange, beta2m ELISA
Excerpt: as §1, §2

| Substance | Peptide exchange (HLA-A*02) | Wells positive [%] (CD8+ T cells) | also measured |
| --- | --- | --- | --- |
| 84 (ALCPRIHEV; listed as Homo sapiens) [compound 84] | ++++ (> = 75% = ++++) |  |  |
| 257 (GLYTDPCGV; listed as Homo sapiens) [compound 257] | ++++ (> = 75% = ++++) |  |  |
| 34 (FLLATEVVTV; listed as Homo sapiens) [compound 34] | ++++ (> = 75% = ++++) |  |  |
| 147 (YLMDDTVEI; listed as Homo sapiens) [compound 147] | ++++ (> = 75% = ++++) |  |  |
| 159 (LYNKGFIYL; listed as Homo sapiens) [compound 159] |  | ++++ (> = 70% = ++++) | Peptide exchange (HLA-A*24): ++++ (> = 75% = ++++) |
| 153 (FISERVEVV; listed as Homo sapiens) [compound 153] | ++++ (> = 75% = ++++) |  |  |
| 133 (ALLPRLHQL; listed as Homo sapiens) [compound 133] | ++++ (> = 75% = ++++) |  |  |
| 14 (ILAKDLFEI; listed as Homo sapiens) [compound 14] | ++++ (> = 75% = ++++) |  |  |
| 158 (HYSQELSLLYL; listed as Homo sapiens) [compound 158] |  | + (<20% = +) | Peptide exchange (HLA-A*24): ++++ (> = 75% = ++++) |
| 163 (DYLKGLASF; listed as Homo sapiens) [compound 163] |  | + (<20% = +) | Peptide exchange (HLA-A*24): ++++ (> = 75% = ++++) |
| 4 (KLMPGTYTL; listed as Homo sapiens) [compound 4] | ++++ (> = 75% = ++++) | + (<20% = +) |  |
| 112 (SLGKFTFDV; listed as Homo sapiens) [compound 112] | ++++ (> = 75% = ++++) |  |  |
| 249 (GLCERLVSL; listed as Homo sapiens) [compound 249] | ++++ (> = 75% = ++++) | + (<20% = +) |  |
| 1 (LLYPEPWSV; listed as Homo sapiens) [compound 1] | ++++ (> = 75% = ++++) |  |  |
| 165 (DYTTWTALL; listed as Homo sapiens) [compound 165] |  | + (<20% = +) | Peptide exchange (HLA-A*24): ++++ (> = 75% = ++++) |
| 258 (LLSERFINV; listed as Homo sapiens) [compound 258] | ++++ (> = 75% = ++++) |  |  |
| 3 (KLEENGDLYL; listed as Homo sapiens) [compound 3] | ++++ (> = 75% = ++++) |  |  |
| 204 (TYELRYFQI; listed as Homo sapiens) [compound 204] |  | + (<20% = +) | Peptide exchange (HLA-A*24): ++++ (> = 75% = ++++) |

| Substance | Peptide exchange (HLA-A*02) | Wells positive [%] (CD8+ T cells) | also measured |
| --- | --- | --- | --- |
| 245 (SLLDLPLSL; listed as Homo sapiens) [compound 245] | ++++ (> = 75% = ++++) |  |  |
| 129 (RLQDILWFL; listed as Homo sapiens) [compound 129] | ++++ (> = 75% = ++++) |  |  |
| 16 (YTLDIPVLFGV; listed as Homo sapiens) [compound 16] | ++++ (> = 75% = ++++) |  |  |
| 229 (AILAHLNTV; listed as Homo sapiens) [compound 229] | ++++ (> = 75% = ++++) |  |  |
| 248 (YLDRFLAGV; listed as Homo sapiens) [compound 248] | ++++ (> = 75% = ++++) |  |  |
| 95 (GLLGSLFFL; listed as Homo sapiens) [compound 95] | ++++ (> = 75% = ++++) |  |  |
| 92 (GLLFSLRSV; listed as Homo sapiens) [compound 92] | ++++ (> = 75% = ++++) |  |  |
| 149 (ILNTHITEL; listed as Homo sapiens) [compound 149] |  | + (<20% = +) |  |
| 12 (GLLPLLHRA; listed as Homo sapiens) [compound 12] | ++++ (> = 75% = ++++) | ++++ (> = 70% = ++++) |  |
| 31 (TITETTVEV; listed as Homo sapiens) [compound 31] |  | + (<20% = +) |  |
| 300 (AYVLRLETL; listed as Homo sapiens) [compound 300] |  |  | in vitro immunogenicity: Wells (CD8+ T cells): + (<20% = +) |
| 51 (LLFSRLCGA; listed as Homo sapiens) [compound 51] | ++++ (> = 75% = ++++) |  |  |
| 126 (QMFQYFITV; listed as Homo sapiens) [compound 126] | ++++ (> = 75% = ++++) |  |  |
| 35 (FLLPFSTVYL; listed as Homo sapiens) [compound 35] |  | + (<20% = +) |  |
| 125 (SLADYEHFV; listed as Homo sapiens) [compound 125] | ++++ (> = 75% = ++++) |  |  |
| 301 (AYKPGALTF; listed as Homo sapiens) [compound 301] |  |  | in vitro immunogenicity: Wells (CD8+ T cells): + (<20% = +) |
| 167 (NYINRILKL; listed as Homo sapiens) [compound 167] |  | + (<20% = +) | Peptide exchange (HLA-A*24): ++++ (> = 75% = ++++) |

From US10279022B2, “Peptides and combination of peptides for use in immunotherapy against various cancers” (immatics biotechnologies GmbH, priority 2015, dated 2019)
